Test results from US20240252614A1.

What was measured:
Conditions in all cases: remark: other sources report otherwise
[1] = target: hMPV A F WT Control (hMPV A), Q6WB98; assay: BLI, no stress
hMPV080 (hMPV A), Q6WB98 = assay: BLI, no stress
hMPV052 (hMPV A), Q6WB98 [2] = assay: BLI, no stress
hMPV045 (hMPV A), Q6WB98 = assay: BLI, no stress
hMPV055 (hMPV A), Q6WB98 [3] = assay: BLI, no stress
hMPV068 (hMPV A), Q6WB98 = assay: BLI, no stress
hMPV043 (hMPV A), Q6WB98 = assay: BLI, no stress
hMPV061 (hMPV A), Q6WB98 = assay: BLI, no stress
hMPV050 (hMPV A), Q6WB98 = assay: BLI, no stress
hMPV071 (hMPV A), Q6WB98 [4] = assay: BLI, no stress
hMPV059 (hMPV A), Q6WB98 [5] = assay: BLI, no stress
hMPV047 (hMPV A), Q6WB98 = assay: BLI, no stress
[6] = target: hMPV A F WT Control (hMPV A), Q6WB98; assay: BLI, no stress; remark: listed apart in the source
hMPV048 (hMPV A), Q6WB98 [7] = assay: BLI, no stress
hMPV063 (hMPV A), Q6WB98 = assay: BLI, no stress
hMPV062 (hMPV A), Q6WB98 = assay: BLI, no stress
hMPV066 (hMPV A), Q6WB98 = assay: BLI, no stress
hMPV044 (hMPV A), Q6WB98 [8] = assay: BLI, no stress
hMPV053 (hMPV A), Q6WB98 = assay: BLI, no stress
hMPV067 (hMPV A), Q6WB98 = assay: BLI, no stress
hMPV049 (hMPV A), Q6WB98 [9] = assay: BLI, no stress
hMPV046 (hMPV A), Q6WB98 [10] = assay: BLI, no stress
hMPV075 (hMPV A), Q6WB98 [11] = assay: BLI, no stress
hMPV077 (hMPV A), Q6WB98 = assay: BLI, no stress
hMPV060 (hMPV A), Q6WB98 [12] = assay: BLI, no stress
hMPV069 (hMPV A), Q6WB98 [13] = assay: BLI, no stress
hMPV058 (hMPV A), Q6WB98 = assay: BLI, no stress
hMPV054 (hMPV A), Q6WB98 = assay: BLI, no stress
hMPV052 (hMPV A), Q6WB98 [14] = assay: BLI, 50C stress
hMPV055 (hMPV A), Q6WB98 [15] = assay: BLI, 50C stress
hMPV071 (hMPV A), Q6WB98 [16] = assay: BLI, 50C stress
hMPV059 (hMPV A), Q6WB98 [17] = assay: BLI, 50C stress
hMPV048 (hMPV A), Q6WB98 [18] = assay: BLI, 50C stress
hMPV044 (hMPV A), Q6WB98 [19] = assay: BLI, 50C stress
hMPV049 (hMPV A), Q6WB98 [20] = assay: BLI, 50C stress
hMPV046 (hMPV A), Q6WB98 [21] = assay: BLI, 50C stress
hMPV075 (hMPV A), Q6WB98 [22] = assay: BLI, 50C stress
hMPV060 (hMPV A), Q6WB98 [23] = assay: BLI, 50C stress
hMPV069 (hMPV A), Q6WB98 [24] = assay: BLI, 50C stress

B1: MPE8 mAb (antibody, V domains shown)
VH: EVQLVESGGGLVKPGGSLRLSCAASGFTFSSYSMNWVRQAPGKGLEWVSSISASSSYSDYADSAKGRFTISRDNAKTSLFLQMNSLRAEDTAIYFCARARATGYSSITPYFDIWGQGTLVTVSS
VL: QSVVTQTPSVSGAPGQRVTISCTGSSSNIGAGYDVHWYQQLPGTAPKLLIYDNNNRPSGVPDRFSASKSGTSASLAITGLQAEDEADYYCQSYDRNLSGVFGTGTKVTVL
B1 showed a Response Shift [1] of 0.102 nm, a Response Shift (hMPV080 (hMPV A), Q6WB98) of 0.787 nm and a Response Shift (hMPV052 (hMPV A), Q6WB98 [2]) of 0.716 nm. The Response Shift (hMPV045 (hMPV A), Q6WB98) was 0.603 nm, the Response Shift (hMPV055 (hMPV A), Q6WB98 [3]) was 0.581 nm and the Response Shift (hMPV068 (hMPV A), Q6WB98) was 0.738 nm. It also gave a Response Shift (hMPV043 (hMPV A), Q6WB98) of 0.558 nm, a Response Shift (hMPV061 (hMPV A), Q6WB98) of 0.813 nm and a Response Shift (hMPV050 (hMPV A), Q6WB98) of 0.641 nm. It also gave a Response Shift (hMPV071 (hMPV A), Q6WB98 [4]) of 0.804 nm, a Response Shift (hMPV059 (hMPV A), Q6WB98 [5]) of 0.666 nm and a Response Shift (hMPV047 (hMPV A), Q6WB98) of 0.259 nm. The Response Shift [6] was 0.69 nm, the Response Shift (hMPV048 (hMPV A), Q6WB98 [7]) was 0.596 nm and the Response Shift (hMPV063 (hMPV A), Q6WB98) was 0.849 nm. It also gave a Response Shift (hMPV062 (hMPV A), Q6WB98) of 0.713 nm, a Response Shift (hMPV066 (hMPV A), Q6WB98) of 0.779 nm and a Response Shift (hMPV044 (hMPV A), Q6WB98 [8]) of 0.72 nm. It also gave a Response Shift (hMPV053 (hMPV A), Q6WB98) of 0.624 nm, a Response Shift (hMPV067 (hMPV A), Q6WB98) of 0.744 nm and a Response Shift (hMPV049 (hMPV A), Q6WB98 [9]) of 0.672 nm. The Response Shift (hMPV046 (hMPV A), Q6WB98 [10]) was 0.603 nm, the Response Shift (hMPV075 (hMPV A), Q6WB98 [11]) was 0.777 nm and the Response Shift (hMPV077 (hMPV A), Q6WB98) was 0.706 nm. The Response Shift (hMPV060 (hMPV A), Q6WB98 [12]) was 0.84 nm, the Response Shift (hMPV069 (hMPV A), Q6WB98 [13]) was 0.651 nm and the Response Shift (hMPV058 (hMPV A), Q6WB98) was 0.684 nm. It also gave a Response Shift (hMPV054 (hMPV A), Q6WB98) of 0.73 nm, a Response Shift (hMPV052 (hMPV A), Q6WB98 [14]) of 0.482 nm and a Response Shift (hMPV055 (hMPV A), Q6WB98 [15]) of 0.098 nm. The Response Shift (hMPV071 (hMPV A), Q6WB98 [16]) was 0.671 nm, the Response Shift (hMPV059 (hMPV A), Q6WB98 [17]) was 0.344 nm and the Response Shift (hMPV048 (hMPV A), Q6WB98 [18]) was 0.377 nm. For the same binder, the Response Shift (hMPV044 (hMPV A), Q6WB98 [19]) was 0.722 nm, the Response Shift (hMPV049 (hMPV A), Q6WB98 [20]) was 0.343 nm and the Response Shift (hMPV046 (hMPV A), Q6WB98 [21]) was 0.412 nm. For the same binder, the Response Shift (hMPV075 (hMPV A), Q6WB98 [22]) was 0.506 nm, the Response Shift (hMPV060 (hMPV A), Q6WB98 [23]) was 0.712 nm and the Response Shift (hMPV069 (hMPV A), Q6WB98 [24]) was 0.355 nm.
